Residue numbers refer to the chain shown, from its start. Names and notes keep the numbering of the source.
Columns and labels:
[1] = molecular target: T1, rHuman P-Cadherin/Fc Chimera, CF (R&D Systems Cat#861-PC) (human, UniProt P22223 108-654); assay: ECL Multispot (MSD), antigen spotted on plate, 10 nM Fab; blank spot of this well 214
T1 construct: Bought recombinant protein; not shown: Fc portion of the purchased chimera

[2] = molecular target: T2, rHuman Erythropoietin R/Fc Chimera, CF (R&D Systems Cat#963-ER) (human, UniProt P19235 25-250); assay: as above
T2 construct: Bought recombinant protein; also called EPO R; EPO R/Fc; not shown: Fc portion of the purchased chimera
T2 sequence (looked up): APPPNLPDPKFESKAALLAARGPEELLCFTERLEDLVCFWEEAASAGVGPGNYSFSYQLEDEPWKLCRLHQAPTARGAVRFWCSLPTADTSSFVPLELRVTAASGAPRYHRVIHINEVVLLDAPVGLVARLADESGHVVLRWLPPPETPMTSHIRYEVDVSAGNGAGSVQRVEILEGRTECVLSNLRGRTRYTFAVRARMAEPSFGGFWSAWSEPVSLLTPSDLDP

[3] = molecular target: T3, rHuman ErbB2/Fc Chimera, CF (R&D Systems Cat#1129-ER) (human, UniProt P04626 23-652); assay: as above
T3 construct: Bought recombinant protein; also called human epidermal growth factor 2 receptor; not shown: Fc portion of the purchased chimera

[4] = molecular target: T4, rHuman EGF R/Fc Chimera, CF (R&D Systems Cat#344-ER) (human, UniProt P00533 25-645); assay: as above
T4 construct: Bought recombinant protein; also called epidermal growth factor receptor; not shown: Fc portion of the purchased chimera

[5] = molecular target: T5, rHuman HGF R/c-MET/Fc Chimera, CF (R&D Systems Cat#358-MT/CF) (human, UniProt P08581 25-932); assay: as above
T5 construct: Bought recombinant protein; also called HGF R/Fc; hepatocyte growth factor receptor; not shown: Fc portion of the purchased chimera

[6] = molecular target: T6, rHuman Notch-1/Fc Chimera, CF (R&D Systems Cat#3647-TK) (human, UniProt P46531 19-526); assay: as above
T6 construct: Bought recombinant protein; the chimera holds only a part of it; not shown: Fc portion of the purchased chimera

[7] = molecular target: T7, rHuman CD44/Fc Chimera, CF (R&D Systems Cat#3660-CD) (human, UniProt P16070 21-220); assay: as above
T7 construct: Bought recombinant protein; not shown: Fc portion of the purchased chimera

[8] = molecular target: T8, rHuman IGF-1 sR, CF (R&D Systems Cat#391-GR) (human, UniProt P08069 31-932); assay: as above
T8 construct: Bought recombinant soluble receptor; The column head prints only 'IGF-1'; also called insulin-like growth factor-1 soluble receptor

[9] = molecular target: T1, rHuman P-Cadherin/Fc Chimera, CF (R&D …); assay: ECL Multispot (MSD), antigen spotted on plate, 10 nM Fab; blank spot of this well 306
[10] = molecular target: T2, rHuman Erythropoietin R/Fc Chimera, CF …; assay: as above
[11] = molecular target: T3, rHuman ErbB2/Fc Chimera, CF (R&D …); assay: as above
[12] = molecular target: T4, rHuman EGF R/Fc Chimera, CF (R&D …); assay: as above
[13] = molecular target: T5, rHuman HGF R/c-MET/Fc Chimera, CF (R&D …); assay: as above
[14] = molecular target: T6, rHuman Notch-1/Fc Chimera, CF (R&D …); assay: as above
[15] = molecular target: T7, rHuman CD44/Fc Chimera, CF (R&D Systems …); assay: as above
[16] = molecular target: T8, rHuman IGF-1 sR, CF (R&D Systems …); assay: as above
[17] = molecular target: T9, rHuman IGF-1 sR, CF (R&D Systems Cat#391-GR) (human, UniProt P08069 31-932); assay: ECL Multispot (MSD), 10 nM Fab; blank 219
T9 construct: Bought soluble receptor; also called insulin-like growth factor-1 soluble receptor

[18] = molecular target: T10, rHuman P-Cadherin/Fc Chimera, CF (R&D Systems Cat#861-PC) (human, UniProt P22223 108-654); assay: ECL Multispot (MSD), 10 nM Fab; blank 219
T10 construct: Bought reagent; Fc part of the bought chimera not given

[19] = molecular target: T11, rHuman Erythropoietin R/Fc Chimera, CF (R&D Systems Cat#963-ER) (human, UniProt P19235 25-250); assay: ECL Multispot (MSD), 10 nM Fab; blank 219
T11 construct: Bought reagent; also called EPO R; EPO R/Fc; Fc part of the bought chimera not given
T11 sequence (looked up): T2 sequence (looked up)

[20] = molecular target: T12, rHuman ErbB2/Fc Chimera, CF (R&D Systems Cat#1129-ER) (human, UniProt P04626 23-652); assay: ECL Multispot (MSD), 10 nM Fab; blank 219
T12 construct: Bought reagent; also called human epidermal growth factor 2 receptor; Fc part of the bought chimera not given

[21] = molecular target: T13, rHuman EGF R/Fc Chimera, CF (R&D Systems Cat#344-ER) (human, UniProt P00533 25-645); assay: ECL Multispot (MSD), 10 nM Fab; blank 219
T13 construct: Bought reagent; also called epidermal growth factor receptor; Fc part of the bought chimera not given

[22] = molecular target: T14, rHuman HGF R/c-MET/Fc Chimera, CF (R&D Systems Cat#358-MT/CF) (human, UniProt P08581 25-932); assay: ECL Multispot (MSD), 10 nM Fab; blank 219
T14 construct: Bought reagent; also called HGF R/Fc; hepatocyte growth factor receptor; Fc part of the bought chimera not given

[23] = molecular target: T15, rHuman Notch-1/Fc Chimera, CF (R&D Systems Cat#3647-TK) (human, UniProt P46531 19-526); assay: ECL Multispot (MSD), 10 nM Fab; blank 219
T15 construct: Bought reagent; Fc part of the bought chimera not given

[24] = molecular target: T16, rHuman CD44/Fc Chimera, CF (R&D Systems Cat#3660-CD) (human, UniProt P16070 21-220); assay: ECL Multispot (MSD), 10 nM Fab; blank 219
T16 construct: Bought reagent; Fc part of the bought chimera not given

B1: Fab VH1-46_IGHD6-6*01_IGHJ1*01 S102A/S103P/S104F (APF) & L6_IGKJ1*01 (Fab, V domains shown)
VH: QVQLVQSGAEVKKPGASVKVSCKASGYTFTSYYMHWVRQAPGQGLEWMGIINPSGGSTSYAQKFQGRVTMTRDTSTSTVYMELSSLRSEDTAVYYCAREEYAPFSAEYFQHWGQGTLVTVSS
VL: not shown
notes: Tested as a Fab expressed in E. coli: the heavy chain from Plasmid A (CH1, His6 and Flag tags), the kappa light chain from Plasmid C (CL kappa); also called H:APF & L:wt; APF triple mutant
- ECL signal [1]: 152
- ECL signal [2]: 179
- ECL signal [3]: 202
- ECL signal [4]: 138
- ECL signal [5]: 190
- ECL signal [6]: 189
- ECL signal [7]: 199
- ECL signal [8]: 190
- ECL signal [9]: 422
- ECL signal [10]: 312
- ECL signal [11]: 378
- ECL signal [12]: 277
- ECL signal [13]: 317
- ECL signal [14]: 370
- ECL signal [15]: 262
- ECL signal [16]: 207

B2: Fab VH1-46_IGHD6-6*01_IGHJ1*01 S102A/S103P/S104F A106E & L6_IGKJ1*01 (Fab, V domains shown)
VH: B1 VH with A106E
VL: not shown
notes: Tested as a Fab (CH1 with His6/Flag tags, kappa CL); also called APF A106E
- ECL signal [17]: 312
- ECL signal [18]: 308
- ECL signal [19]: 204
- ECL signal [20]: 189
- ECL signal [21]: 226
- ECL signal [22]: 212
- ECL signal [23]: 156
- ECL signal [24]: 192

— patent publication US20120316071A1 (published 2012)
